Columns and labels:
[1] = target: biotinylated RSK1 725-735 peptide, unphosphorylated (human) (UniProt Q15418); assay: holdup assay
[2] = target: biotinylated RSK1 725-735 peptide, phosphorylated at Ser732 (position -3) (human) (UniProt Q15418); assay: holdup assay
[3] = target: MBP-fused PDZ domain 1 of PDZRN3 (human) (UniProt Q9UPQ7); assay: fluorescence polarisation
[4] = target: MBP-fused PDZ domain of ARHGEF12 (human) (UniProt Q9NZN5); assay: fluorescence polarisation
[5] = target: MBP-fused PDZ domain of GOPC (human) (UniProt Q9HD26); assay: fluorescence polarisation
[6] = target: MBP-fused PDZ domain of SYNJ2BP (human) (UniProt P57105); assay: fluorescence polarisation
[7] = target: biotinylated RSK1 725-735 peptide, phosphorylated at Ser732 (position -3) (human) (UniProt Q15418); assay: SPR
[8] = target: Scribble PDZ1 (Homo sapiens) (UniProt Q14160); assay: holdup assay; details: cited from earlier work
[9] = target: biotinylated RSK1 725-735 peptide, unphosphorylated (human) (UniProt Q15418); assay: SPR

Sequence of MBP-fused PDZ domain 1 of PDZRN3 (human) (Q9UPQ7 249-339): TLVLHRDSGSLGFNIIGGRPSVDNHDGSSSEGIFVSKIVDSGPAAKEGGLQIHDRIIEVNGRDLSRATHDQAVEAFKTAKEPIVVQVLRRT
Sequence of MBP-fused PDZ domain of SYNJ2BP (human) (P57105 13-100): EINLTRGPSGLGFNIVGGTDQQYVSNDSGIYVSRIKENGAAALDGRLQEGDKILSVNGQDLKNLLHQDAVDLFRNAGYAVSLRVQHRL
Sequence of HPV16 E6 PBM (P03126 whole entry, looked up): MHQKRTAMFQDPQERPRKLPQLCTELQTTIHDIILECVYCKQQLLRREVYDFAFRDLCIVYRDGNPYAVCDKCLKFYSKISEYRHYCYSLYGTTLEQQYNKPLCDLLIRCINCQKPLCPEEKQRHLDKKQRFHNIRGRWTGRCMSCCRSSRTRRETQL
Sequence of Scribble PDZ1 (Homo sapiens) (Q14160 725-818): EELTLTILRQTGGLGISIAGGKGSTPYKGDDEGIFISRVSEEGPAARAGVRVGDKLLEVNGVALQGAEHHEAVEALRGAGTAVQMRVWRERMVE
Sequence of MBP-fused PDZ domain of ARHGEF12 (human) (Q9NZN5 72-151): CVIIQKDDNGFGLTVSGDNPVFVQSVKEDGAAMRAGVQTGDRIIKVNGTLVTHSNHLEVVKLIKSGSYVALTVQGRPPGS

Kd [1]	BI [2]	Kd [2]	BI [1]	Substance	further results
> 100 µM				PDZ domain of GORASP1 (domain or fragment)	
57.2 µM	0.45	18.6 µM	0.22	MBP-fused PDZ domain of SNTB1 (from UniProt Q13884 112-195) (domain or fragment)	Kd [7]: 48 µM
		> 100 µM	0.27	PDZ domain of SHANK3 (from UniProt Q9BYB0 646-740) (domain or fragment)	
22.1 µM	0.52	13.8 µM	0.41	MBP-fused PDZ domain of SNTG2 (from UniProt Q9NY99 73-156) (domain or fragment)	Kd [7]: 37 µM
> 100 µM	0.33	31.8 µM		PDZ domain of PPP1R9A (from UniProt Q9ULJ8 504-592) (domain or fragment)	
53.8 µM		> 100 µM	0.23	PDZ domain 3 of DFNB31 (from UniProt Q9P202 816-899) (domain or fragment)	
22.1 µM		> 100 µM	0.41	MBP-fused PDZ domain 1 of NHERF3 (from UniProt Q5T2W1 9-90) (domain or fragment)	
40.8 µM		> 100 µM	0.28	PDZ domain of ARHGEF11 (from UniProt O15085 47-126) (domain or fragment)	
> 100 µM	0.24	50.8 µM		PDZ domain 3 of LNX1 (from UniProt Q8TBB1 507-593) (domain or fragment)	
38.8 µM		> 100 µM	0.29	PDZ domain of GRASP (from UniProt Q7Z6J2 101-190) (domain or fragment)	
> 100 µM	0.21	60.8 µM		PDZ domain of SHROOM2 (from UniProt Q13796 26-108) (domain or fragment)	
11.1 µM		> 100 µM	0.57	MBP-fused PDZ domain of MAST1 (from UniProt Q9Y2H9 967-1055) (domain or fragment)	
45.4 µM	0.54	12.6 µM	0.26	MBP-fused PDZ domain of SYNJ2BP (from UniProt P57105 13-100) (domain or fragment)	Kd [7]: 25 µM
> 100 µM	0.21	60.8 µM		PDZ domain of PTPN3 (from UniProt P26045 510-582) (domain or fragment)	
7.1 µM		> 100 µM	0.67	MBP-fused PDZ domain 2 of GRID2IP (from UniProt A4D2P6 279-356) (domain or fragment)	Kd [9]: 3.96 µM
	0.15	92.9 µM		MBP-fused PDZ domain 3 of PDZD7 (from UniProt Q9H5P4 862-934) (domain or fragment)	Kd [9]: 6.2 µM

The remaining lines, values behind:

Substance	Kd [1]	BI [2]	Kd [2]	BI [1]	further results
MBP-fused second PDZ domain of MAGI1 (from UniProt Q96QZ7 472-554) (domain or fragment)	20.3 µM	0.15	92.9 µM	0.43	
PDZ domain 2 of NHERF2 (from UniProt Q15599 150-230) (domain or fragment)	64.8 µM		> 100 µM		
MBP-fused PDZ domain 2 of MAGI2 (from UniProt Q86UL8 426-510) (domain or fragment)	21.2 µM	0.23	53.8 µM	0.42	
RSK1 683-735 peptide, unphosphorylated (from UniProt Q15418 683-735)					Kd [3]: > 100 µM; Kd [4]: 6.6 µM; Kd [5]: 27 µM; Kd [6]: > 100 µM
PDZ domain of LAP2 (from UniProt Q96RT1 1321-1410) (domain or fragment)	> 100 µM	0.28	40.8 µM		
HPV16 E6 PBM (from UniProt P03126)					Kd [8]: 7.5 µM
PDZ domain 2 of DLG4 (from UniProt P78352 160-246) (domain or fragment)	> 100 µM	0.25		0.11	
MBP-fused PDZ domain of ARHGEF12 (from UniProt Q9NZN5 72-151) (domain or fragment)	4.2 µM		> 100 µM	0.77	Kd [9]: 2.79 µM
MBP-fused PDZ domain of HTRA1 (from UniProt Q92743 365-467) (domain or fragment)	19.4 µM	0.36	27.7 µM	0.44	
MBP-fused PDZ domain of SNTA1 (from UniProt Q13424 87-170) (domain or fragment)	35.1 µM	0.53	13.2 µM	0.31	
MBP-fused PDZ domain of MAST2 (from UniProt Q6P0Q8 1104-1192) (domain or fragment)		0.23	53.8 µM	0.74	Kd [9]: 7.02 µM
PDZ domain 1 of GRID2IP (from UniProt A4D2P6 3-84) (domain or fragment)	> 100 µM	0.24	50.8 µM		
PDZ domain of LIMK2 (from UniProt P53671 152-239) (domain or fragment)	> 100 µM	0.22	57.2 µM		
MBP-fused PDZ domain 1 of PDZRN3 (from UniProt Q9UPQ7 249-339) (domain or fragment)	45.4 µM	0.45	18.6 µM	0.26	
